According to the supplement of paper PMC9112550, “Optimization of the antimicrobial peptide Bac7 by deep mutational scanning” (BMC Biology, 2022):

Tested on: Escherichia coli TOP10
Experiment: shrunken log2 fold change of peptide-encoding DNA abundance (4.5 h post-induction vs induction); higher = less antimicrobial activity (less host growth inhibition)
Settings: time post-induction: 4.5 h; library: site-saturation at positions 5, 18, 19, 20
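Also: peptides expressed intracellularly from a pBAD plasmid library in pooled LB shake-flask culture, induced with 0.3% L-arabinose, DNA abundance read by NGS, three biological replicates, DESeq2 with apeglm shrinkage.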

Row | Sequence | shrunken log2 fold change
1 | RRIRKRPPRLPRPRPRPGFYPRP | 0.00129
2 | RRIRLRPPRLPRPRPRPPTPPRP | 0.617
3 | RRIRKRPPRLPRPRPRPIPQPRP | -0.184
4 | RRIRWRPPRLPRPRPRPILCPRP | 0.00316
5 | RRIRWRPPRLPRPRPRPIHTPRP | -0.275
6 | RRIRIRPPRLPRPRPRPMFRPRP | -0.0542
7 | RRIRTRPPRLPRPRPRPYALPRP | -0.686
8 | RRIRHRPPRLPRPRPRPMRMPRP | -0.00476
9 | RRIRPRPPRLPRPRPRPWMYPRP | -0.691
10 | RRIRCRPPRLPRPRPRPWSPPRP | -0.0395
11 | RRIRTRPPRLPRPRPRPFWPPRP | 0.178
12 | RRIRQRPPRLPRPRPRPMHCPRP | 0.0165
13 | RRIRRRPPRLPRPRPRPYHKPRP | -0.535
14 | RRIRTRPPRLPRPRPRPWWPPRP | -0.0247
15 | RRIRARPPRLPRPRPRPTIPPRP | 0.132
16 | RRIRWRPPRLPRPRPRPHPPPRP | 0.348
17 | RRIRKRPPRLPRPRPRPWQSPRP | 0.0203
18 | RRIRERPPRLPRPRPRPAYAPRP | 0.0657
19 | RRIRTRPPRLPRPRPRPKYAPRP | -0.495
20 | RRIRFRPPRLPRPRPRPYPIPRP | -0.281
21 | RRIRCRPPRLPRPRPRPLTNPRP | -0.454
22 | RRIRGRPPRLPRPRPRPNEIPRP | 0.559
23 | RRIRHRPPRLPRPRPRPKNNPRP | -0.74

Row | Sequence | shrunken log2 fold change
24 | RRIRDRPPRLPRPRPRPRECPRP | 0.0105
25 | RRIRMRPPRLPRPRPRPIPHPRP | 0.246
26 | RRIRVRPPRLPRPRPRPRTGPRP | -0.0024
27 | RRIRERPPRLPRPRPRPPEQPRP | 0.251
28 | RRIRNRPPRLPRPRPRPVNYPRP | -0.179
29 | RRIRLRPPRLPRPRPRPINTPRP | -0.881
30 | RRIRLRPPRLPRPRPRPKPTPRP | 0.15
31 | RRIRGRPPRLPRPRPRPFHAPRP | -0.13
32 | RRIRMRPPRLPRPRPRPELGPRP | 0.276
33 | RRIRKRPPRLPRPRPRPFDVPRP | 0.0305
34 | RRIRHRPPRLPRPRPRPKFYPRP | -0.148
35 | RRIRRRPPRLPRPRPRPLAQPRP | 0.498
36 | RRIRLRPPRLPRPRPRPVRIPRP | 0.115
37 | RRIRVRPPRLPRPRPRPPSQPRP | 0.125
38 | RRIRHRPPRLPRPRPRPFYYPRP | -0.0287
39 | RRIRMRPPRLPRPRPRPWGMPRP | 0.187
40 | RRIRFRPPRLPRPRPRPFFQPRP | -0.378
41 | RRIRMRPPRLPRPRPRPPFIPRP | 0.082
42 | RRIRYRPPRLPRPRPRPESKPRP | -0.859
43 | RRIRSRPPRLPRPRPRPDQGPRP | -0.196
44 | RRIRNRPPRLPRPRPRPCYEPRP | -0.0244
45 | RRIRCRPPRLPRPRPRPGQWPRP | -0.125
46 | RRIRDRPPRLPRPRPRPYKKPRP | 0.00426

Row | Sequence | shrunken log2 fold change
47 | RRIRSRPPRLPRPRPRPDVPPRP | -0.0936
48 | RRIRRRPPRLPRPRPRPCAFPRP | 0.123
49 | RRIRCRPPRLPRPRPRPGAWPRP | 0.462
50 | RRIRHRPPRLPRPRPRPGSPPRP | -0.171
51 | RRIRDRPPRLPRPRPRPNRIPRP | -0.152
52 | RRIRMRPPRLPRPRPRPRTIPRP | 0.229
53 | RRIRNRPPRLPRPRPRPAYDPRP | -0.119
54 | RRIRRRPPRLPRPRPRPFKTPRP | -0.0587
55 | RRIRDRPPRLPRPRPRPGENPRP | -0.00211
56 | RRIRYRPPRLPRPRPRPLCSPRP | -0.0549
57 | RRIRDRPPRLPRPRPRPFFAPRP | 0.412
58 | RRIRKRPPRLPRPRPRPIFCPRP | 0.387
59 | RRIRPRPPRLPRPRPRPPAVPRP | 0.37
60 | RRIRQRPPRLPRPRPRPDPSPRP | -0.132
61 | RRIRQRPPRLPRPRPRPLTSPRP | -0.254
62 | RRIRTRPPRLPRPRPRPNAQPRP | 0.5
63 | RRIRTRPPRLPRPRPRPREGPRP | 0.41
64 | RRIRNRPPRLPRPRPRPMVYPRP | 0.0157
65 | RRIRKRPPRLPRPRPRPQPEPRP | 0.7
66 | RRIRNRPPRLPRPRPRPTMAPRP | 0.0535
67 | RRIRKRPPRLPRPRPRPKSSPRP | 0.202
68 | RRIRVRPPRLPRPRPRPEKMPRP | -0.3
69 | RRIRHRPPRLPRPRPRPHYDPRP | -0.257

Row | Sequence | shrunken log2 fold change
70 | RRIRYRPPRLPRPRPRPPHRPRP | -0.0877
71 | RRIRIRPPRLPRPRPRPSFTPRP | -0.573
72 | RRIRPRPPRLPRPRPRPVGVPRP | 0.52
73 | RRIRDRPPRLPRPRPRPELHPRP | 0.319
74 | RRIRPRPPRLPRPRPRPDIKPRP | -0.317
75 | RRIRSRPPRLPRPRPRPSDVPRP | -0.221
76 | RRIRYRPPRLPRPRPRPYMWPRP | -0.43
77 | RRIRTRPPRLPRPRPRPMNRPRP | -0.0804
78 | RRIRERPPRLPRPRPRPCMDPRP | -0.151
79 | RRIRWRPPRLPRPRPRPSNAPRP | -0.0613
80 | RRIRLRPPRLPRPRPRPRMFPRP | -0.0408
81 | RRIRCRPPRLPRPRPRPSWRPRP | -0.0716
82 | RRIRQRPPRLPRPRPRPNWHPRP | 0.141
83 | RRIRVRPPRLPRPRPRPGQCPRP | -0.0287
84 | RRIRNRPPRLPRPRPRPDYHPRP | 0.00923
85 | RRIRPRPPRLPRPRPRPFYGPRP | -0.142
86 | RRIRPRPPRLPRPRPRPAGYPRP | -0.189
87 | RRIRERPPRLPRPRPRPQGFPRP | -0.144
88 | RRIRLRPPRLPRPRPRPTIEPRP | 0.033
89 | RRIRVRPPRLPRPRPRPVETPRP | 0.0754
90 | RRIRYRPPRLPRPRPRPVSQPRP | -0.303
91 | RRIRVRPPRLPRPRPRPDIYPRP | -0.131
